Measured values: US20150344570A1 (published 2015)

T1: FcγRIIa R (FcγRIIa allotype with Arg at position 131), extracellular domain with C-terminal His tag (human, UniProt P12318 34-217)
T1 construct: extracellular domain; made in FreeStyle293 cells; analyte in the Biacore assay; also called FcγRIIa type R; 2aR
T1 sequence (looked up): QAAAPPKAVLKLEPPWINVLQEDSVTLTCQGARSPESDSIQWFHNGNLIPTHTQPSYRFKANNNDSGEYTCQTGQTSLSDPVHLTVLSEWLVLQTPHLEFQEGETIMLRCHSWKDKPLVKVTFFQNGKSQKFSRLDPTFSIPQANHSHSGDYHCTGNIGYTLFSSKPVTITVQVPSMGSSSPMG

T2: FcγRIIb, extracellular domain with C-terminal His tag (human, UniProt P31994 43-217)
T2 construct: extracellular domain; made in FreeStyle293 cells; analyte in the Biacore assay; also called 2b; FcgRIIb
T2 sequence (looked up): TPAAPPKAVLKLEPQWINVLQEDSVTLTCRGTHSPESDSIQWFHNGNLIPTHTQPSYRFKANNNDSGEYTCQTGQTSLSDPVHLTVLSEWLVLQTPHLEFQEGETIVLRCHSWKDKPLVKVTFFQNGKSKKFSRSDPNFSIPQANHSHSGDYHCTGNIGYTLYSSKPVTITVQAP


How the values were obtained:
[1] = target: T1, FcγRIIa R (FcγRIIa allotype with Arg at …); experiment: SPR (Biacore), antibody captured, FcγR analyte; vs GpH7-A5/GpH7-B3/GpL16-k0 = 100
[2] = target: T2, FcγRIIb, extracellular domain with …; experiment: as above
[3] = target: T1, FcγRIIa R (FcγRIIa allotype with Arg at …); experiment: SPR (Biacore); He/Con_2aR divided by He/Con_2b, binding to FcγRIIa R against binding to FcγRIIb
Description: The heterodimerized antibodies He Abs in which one of the H chains was introduced with an alteration were assayed for their binding activities to each activating FcγR and inhibitory FcγR according to the method described in Example 4. […] The activating FcγRs in FIGS. 26, 27, 28, and 29 are FcγRIa, FcγRIIa (R), FcγRIIa (H), and FcγRIIIa, respectively.
Analysis of interaction between objective antibody and the FcγR was carried out using Biacore T100 (GE Healthcare). HBS-EP+ (GE Healthcare) was used as the running buffer, and the measurement temperature was set to 25° C. Chips produced by immobilizing the antigen peptide by the amine coupling method to a Series S Sencor Chip CM5 (GE Healthcare), or alternatively, chips produced by allowing preliminarily biotinylated antigen peptides to interact with and immobilize onto a Series S Sensor Chip SA (certified) (GE Healthcare) were used. Antibodies of interest were captured onto an antigen peptide-immobilized chip, and allowed to interact to each FcγR diluted with running buffer. To regenerate and repeatedly use the chip, the antibodies captured on the chip were washed off by reacting 10 mM glycine-HCl, pH 1.5.

Binder | He/Con_2aR [1] | He/Con_2b [2] | He_2aR/2b (IIaR/IIb) [3] [ratio]
GpH7-A5/GpH7-B3 variant L234_16H/GpL16-k0 (antibody, human IgG1, kappa, heterodimerized IgG1, mutation in one H chain only; also called He Ab) heavy 1: not shown heavy 2: not shown light: DIVMTQSPLSLPVTPGEPASISCQASESLVHSNRNTYLHWYLQKPGQSPQLLIYKVSNRFSGVPDRFSGSGSGTDFTLKISRVEAEDVGVYYCSQNTHVPPTFGQGTKVEIERTVAAPSVFIFPPSDEQLKSGTASVVCLLNNFYPREAKVQWKVDNALQSGNSQESVTEQDSKDSTYSLSSTLTLSKADYEKHKVYACEVTHQGLSSPVTKSFNRGEC | 71.8 relative (HeCon Ab = 100) | 59.4 relative (HeCon Ab = 100) | 1.21
GpH7-A5/GpH7-B3 variant L234_19Q/GpL16-k0 (antibody, human IgG1, kappa, heterodimerized IgG1, mutation in one H chain only; also called He Ab) heavy 1: not shown heavy 2: not shown light: DIVMTQSPLSLPVTPGEPASISCQASESLVHSNRNTYLHWYLQKPGQSPQLLIYKVSNRFSGVPDRFSGSGSGTDFTLKISRVEAEDVGVYYCSQNTHVPPTFGQGTKVEIERTVAAPSVFIFPPSDEQLKSGTASVVCLLNNFYPREAKVQWKVDNALQSGNSQESVTEQDSKDSTYSLSSTLTLSKADYEKHKVYACEVTHQGLSSPVTKSFNRGEC | 75.1 relative (HeCon Ab = 100) | 60.3 relative (HeCon Ab = 100) | 1.24
GpH7-A5/GpH7-B3 variant L235_11K/GpL16-k0 (antibody, human IgG1, kappa, heterodimerized IgG1, mutation in one H chain only; also called He Ab) heavy 1: not shown heavy 2: not shown light: DIVMTQSPLSLPVTPGEPASISCQASESLVHSNRNTYLHWYLQKPGQSPQLLIYKVSNRFSGVPDRFSGSGSGTDFTLKISRVEAEDVGVYYCSQNTHVPPTFGQGTKVEIERTVAAPSVFIFPPSDEQLKSGTASVVCLLNNFYPREAKVQWKVDNALQSGNSQESVTEQDSKDSTYSLSSTLTLSKADYEKHKVYACEVTHQGLSSPVTKSFNRGEC | 10.8 relative (HeCon Ab = 100) | 6.3 relative (HeCon Ab = 100) | 1.72
GpH7-A5/GpH7-B3 variant L235_01G/GpL16-k0 (antibody, human IgG1, kappa, heterodimerized IgG1, mutation in one H chain only; also called He Ab) heavy 1: not shown heavy 2: not shown light: DIVMTQSPLSLPVTPGEPASISCQASESLVHSNRNTYLHWYLQKPGQSPQLLIYKVSNRFSGVPDRFSGSGSGTDFTLKISRVEAEDVGVYYCSQNTHVPPTFGQGTKVEIERTVAAPSVFIFPPSDEQLKSGTASVVCLLNNFYPREAKVQWKVDNALQSGNSQESVTEQDSKDSTYSLSSTLTLSKADYEKHKVYACEVTHQGLSSPVTKSFNRGEC | 48.5 relative (HeCon Ab = 100) | 35.4 relative (HeCon Ab = 100) | 1.37
GpH7-A5/GpH7-B3 variant L235_13S/GpL16-k0 (antibody, human IgG1, kappa, heterodimerized IgG1, mutation in one H chain only; also called He Ab) heavy 1: not shown heavy 2: not shown light: DIVMTQSPLSLPVTPGEPASISCQASESLVHSNRNTYLHWYLQKPGQSPQLLIYKVSNRFSGVPDRFSGSGSGTDFTLKISRVEAEDVGVYYCSQNTHVPPTFGQGTKVEIERTVAAPSVFIFPPSDEQLKSGTASVVCLLNNFYPREAKVQWKVDNALQSGNSQESVTEQDSKDSTYSLSSTLTLSKADYEKHKVYACEVTHQGLSSPVTKSFNRGEC | 65.3 relative (HeCon Ab = 100) | 48.2 relative (HeCon Ab = 100) | 1.36

More lines, now with the values ahead:

He/Con_2aR [1] | He/Con_2b [2] | He_2aR/2b (IIaR/IIb) [3] [ratio] | Binder
66.5 relative (HeCon Ab = 100) | 54.9 relative (HeCon Ab = 100) | 1.21 | GpH7-A5/GpH7-B3 variant L235_18N/GpL16-k0 (antibody, human IgG1, kappa, heterodimerized IgG1, mutation in one H chain only; also called He Ab) heavy 1: not shown heavy 2: not shown light: DIVMTQSPLSLPVTPGEPASISCQASESLVHSNRNTYLHWYLQKPGQSPQLLIYKVSNRFSGVPDRFSGSGSGTDFTLKISRVEAEDVGVYYCSQNTHVPPTFGQGTKVEIERTVAAPSVFIFPPSDEQLKSGTASVVCLLNNFYPREAKVQWKVDNALQSGNSQESVTEQDSKDSTYSLSSTLTLSKADYEKHKVYACEVTHQGLSSPVTKSFNRGEC
94.8 relative (HeCon Ab = 100) | 76.9 relative (HeCon Ab = 100) | 1.23 | GpH7-A5/GpH7-B3 variant L235_16H/GpL16-k0 (antibody, human IgG1, kappa, heterodimerized IgG1, mutation in one H chain only; also called He Ab) heavy 1: not shown heavy 2: not shown light: DIVMTQSPLSLPVTPGEPASISCQASESLVHSNRNTYLHWYLQKPGQSPQLLIYKVSNRFSGVPDRFSGSGSGTDFTLKISRVEAEDVGVYYCSQNTHVPPTFGQGTKVEIERTVAAPSVFIFPPSDEQLKSGTASVVCLLNNFYPREAKVQWKVDNALQSGNSQESVTEQDSKDSTYSLSSTLTLSKADYEKHKVYACEVTHQGLSSPVTKSFNRGEC
60.7 relative (HeCon Ab = 100) | 46.8 relative (HeCon Ab = 100) | 1.3 | GpH7-A5/GpH7-B3 variant L235_14T/GpL16-k0 (antibody, human IgG1, kappa, heterodimerized IgG1, mutation in one H chain only; also called He Ab) heavy 1: not shown heavy 2: not shown light: DIVMTQSPLSLPVTPGEPASISCQASESLVHSNRNTYLHWYLQKPGQSPQLLIYKVSNRFSGVPDRFSGSGSGTDFTLKISRVEAEDVGVYYCSQNTHVPPTFGQGTKVEIERTVAAPSVFIFPPSDEQLKSGTASVVCLLNNFYPREAKVQWKVDNALQSGNSQESVTEQDSKDSTYSLSSTLTLSKADYEKHKVYACEVTHQGLSSPVTKSFNRGEC
